Columns and labels:
[1] = target: GluK2-ABD (Cys-light homomeric GluK2 receptor with a cysteine at site 479) (Rattus norvegicus) (UniProt P42260)
[2] = target: GluK2-ATD (Cys-light homomeric GluK2 receptor with a cysteine at site 266) (Rattus norvegicus) (UniProt P42260)

Substance Concanavalin A (natural protein) has a smFRET efficiency between subunits at the ABD dimer interface (site 479) with 40 uM Con-A and 1 mM glutamate, Na+; major peak, shift of the population to higher FRET states against no Con-A (FRET efficiency) [1] of 0.94 and a smFRET efficiency across the dimer-dimer interface at the ATD (site 266) with 40 uM Con-A and 1 mM glutamate; primary population, against 0.83 reported earlier without Con-A (FRET efficiency) [2] of 0.95.

From PMC8401665
